# Reference: patent publication US20250289891A1 (AUTOLUS, published 2025)
# Molecular target: T1, Plate bound FcRH5 antigen (UniProt Q96RD9)
# T1 sequence (looked up): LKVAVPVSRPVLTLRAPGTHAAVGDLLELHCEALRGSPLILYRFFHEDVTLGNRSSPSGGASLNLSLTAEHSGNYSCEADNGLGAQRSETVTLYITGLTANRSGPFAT
# Test: cell-based or functional assay
Binder,EC50 (µg/ml) of percentage Nur77 activation by plate bound FcRH5 antigen (µg/ml FcRH5 coating),Nur77-mClover positive cells after 24 h 10 µg/ml (% upregulation) [%]
"Anti-FcRH5 VHH-CAR 66835 (VHH of AU60466), on Jurkat T cells (protein, not shown: large carriers) QVQLQQSGGGLVQAGGSLSLSCTASGRSFSNYGMGWFRQAPGKEREFVAAIGMVGGLTAYSNSAKGRFTISRDNAKNTLYLQMNSLKPEDTAVYLCAAGRRFSTSSRDYDIWGQGTQVTVS",0.977,45.5
"Anti-FcRH5 VHH-CAR 66833 (VHH of AU60464), on Jurkat T cells (protein, not shown: large carriers) QVQLQQSGGGLVQPGGSLRLSCAAPGNIFRLNGTGWYRQAPGKQRELVAHITSGGNTDYADSVKGRFTISRDNAKNTVYLQMNSLKPEDTAVYYCNAIPFRLSWGQGTQVTVS",1.31,26.6
"Anti-FcRH5 VHH-CAR 66842 (VHH of AU60370), on Jurkat T cells (protein, not shown: large carriers) QVQLQESGGGSVQPGGSLSLSCAASGFTFSNYAMSWVRQAPGKGPEWVAVINSDGGTASSAGSVRGRFTISRDNAKNTLYLQMNRLKPEDTAVYYCAANRGFCAGVRCLEYQYWGQGTQVTVS",1.46,36.8
"Anti-FcRH5 VHH-CAR 66828 (VHH of AU60390), on Jurkat T cells (protein, not shown: large carriers) QVQLQQSGGGLVQAGDSLRLSCAASGRTFSNSTMGWFRQAPGKERKFVAVISWSGGTYAYAESVKGRFTISRDNAKNTVYLQMNSLKPEDTAVYYCAAARKGWSTRGDDYDYWGQGTQVTVS",1.8,34.2
"Anti-FcRH5 VHH-CAR 66843 (VHH of AU60382), on Jurkat T cells (protein, not shown: large carriers) QVQLQESGGGLVQAGGSLIVSCAASGRTFSINAMAWFRQAPGKEREFVAAIGGSGRVSSTSYADFVKGRFTISRDNAKNTVYLRMNNLEPEDTAVYYCAARRDYLPFPPESYDYWGQGTQVTVA",1.97,29.7
"Anti-FcRH5 VHH-CAR 66823 (VHH of AU60385), on Jurkat T cells (protein, not shown: large carriers) QVQLQESGGGLVQAGGSLRLSCAASGRTFSTYAMAWFRQAPGKEREFVAAISGFGVVTYYADSVKGRFTISRDNAKNTLYLQMNGLKPEDTAVYYCAAGRRTSTNGGDYDYWGQGTQVTVS",1.54,26.5
"Anti-FcRH5 VHH-CAR 66840 (VHH of AU60471), on Jurkat T cells (protein, not shown: large carriers) QVQLQESGGGLVQAGGSLRLSCAASGSIFSINAMGWYRQAPGKQRELVAFITSGGSTNYADSVKGRFTISRDNAKNTVYLQMNSLKPEDTAVYYCNALGGFVPSYGWGQGTQVTVS",1.62,40.7
"Anti-FcRH5 VHH-CAR 66836 (VHH of AU60467), on Jurkat T cells (protein, not shown: large carriers) QVQLQESGGGLVQAGDSLRLSCAASGRTFDSRPMGWFRQAPGKEREFVGAVSWRGESTYYPDSVKGRFTISRDNAKRTVYLQMNSLKPEDTAVYYCAAGEPYSGTYYYRGRDYDYWGQGTQVTVS",,0.898
"Anti-FcRH5 VHH-CAR 66832 (VHH of AU60463), on Jurkat T cells (protein, not shown: large carriers) QVQLQESGGGLVQAGDSLRLSCAYSGRTFSSYAMGWFRQAPGKERVFVAAISRIGGVTTYAESVQGRFTISRDNAKNTLYLQMNALKPEDTAVYYCAAAGLVSISTTPNDYDYWGQGTQVTVS",2,38.4
"Anti-FcRH5 VHH-CAR 66825 (VHH of AU60387), on Jurkat T cells (protein, not shown: large carriers) QVQLQESGGGLVQAGGSLRLSCAASGRTFSTYGMGWFRQAPGKEREFVAAISRSGGATAYAASVKGRFTISRDDVKNTLYLQMNSLKPEDTAVYHCAGTRRAFSTGLRDYDYWGQGIQVTVS",2.42,39
"Anti-FcRH5 VHH-CAR 66829 (VHH of AU60460), on Jurkat T cells (protein, not shown: large carriers) QVQLQESGGGLVQAGGSLRLSCAASGRTYNNYAMGWFRQAPGKEREFVAGISRSGGMTGYAESVKGRFTISRDNAKNMVFLQMNSLKPEDTAVYYCAAYVGGFSTARRDYSYWGQGTQVTVS",1.43,44.5
"Anti-FcRH5 VHH-CAR 66831 (VHH of AU60462), on Jurkat T cells (protein, not shown: large carriers) QVQLQESGGGLVQAGGSLRLSCTASGRTSSRAAMGWFRQAPGKEREFVAVISWSGGTTAYANSVKGRFTISRDNAKNTLYLQMNSLKPEDTAVYYCAAARIFTTARNDYDHWGQGTQVTVS",,2.59

# Molecular target: T2, Recombinant purified FcRH5 Ig-8 domain (UniProt Q96RD9 743-850, limits assumed)
# T2 construct: domain: Ig8
# T2 sequence (looked up): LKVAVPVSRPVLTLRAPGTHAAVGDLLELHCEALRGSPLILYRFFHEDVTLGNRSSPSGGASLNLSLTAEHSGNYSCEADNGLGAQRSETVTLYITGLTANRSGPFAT
# Test: SPR, Biacore 8k, VHH-mIgG2a Fc captured by anti-mouse kit on CM5, FcRH5 Ig8 as analyte (500 nM, 2-fold dilutions), 1:1 Langmuir fit, 25 C
# Experimental: (§1) Recombinant anti-FcRH5 antibodies in mouse IgG2a format were captured on flow cell 2 on a Series S CM5 chip (GE Healthcare), functionalised with anti-mouse capture kit according to manufacturer's recommendations (GE Healthcare). Antibodies were captured to a density of 160 RU using a Biacore 8k instrument. HBS-P+ buffer was used as running buffer in all experimental conditions. Recombinant purified FcRH5 Ig-8 domain at known concentrations (500 nM with 2-fold serial dilutions) used as the ‘analyte’ and injected over the respective flow cells with 150s contact time and 500s dissociation at 30 μl/minute of flow rate with a constant temperature of 25° C. In each experiment, flow cell 1 was unmodified and used for reference subtraction. A ‘0 concentration’ sensogram of buffer alone was used as a double reference subtraction to factor for drift. Data were fit to a 1:1 Langmuir binding model. Since a capture system was used, a local maximal analytical response (Rmax) parameter was used for the data fitting in each case.
Binder,Kd [nM],koff [s⁻¹],kon [M⁻¹ s⁻¹]
"Anti-FcRH5 VHH-Fc AU60466 (AbVec.aFcRH5.dAb-MIgG2a-Fc.Clone.F01) (Fc fusion, not shown: murine IgG2a Fc domain) QVQLQQSGGGLVQAGGSLSLSCTASGRSFSNYGMGWFRQAPGKEREFVAAIGMVGGLTAYSNSAKGRFTISRDNAKNTLYLQMNSLKPEDTAVYLCAAGRRFSTSSRDYDIWGQGTQVTVS",3.14,0.000469,150000
"Anti-FcRH5 VHH-Fc AU60464 (AbVec.aFcRH5.dAb-MIgG2a-Fc.Clone.E11) (Fc fusion, not shown: murine IgG2a Fc domain) QVQLQQSGGGLVQPGGSLRLSCAAPGNIFRLNGTGWYRQAPGKQRELVAHITSGGNTDYADSVKGRFTISRDNAKNTVYLQMNSLKPEDTAVYYCNAIPFRLSWGQGTQVTVS",4.84,0.00289,596000
"Anti-FcRH5 VHH-Fc AU60370 (AbVec.aFcRH5.dAb-MIgG2a-Fc.Clone.B04) (Fc fusion, not shown: murine IgG2a Fc domain) QVQLQESGGGSVQPGGSLSLSCAASGFTFSNYAMSWVRQAPGKGPEWVAVINSDGGTASSAGSVRGRFTISRDNAKNTLYLQMNRLKPEDTAVYYCAANRGFCAGVRCLEYQYWGQGTQVTVS",3.64,0.00028,76800
"Anti-FcRH5 VHH-Fc AU60465 (AbVec.aFcRH5.dAb-MIgG2a-Fc.Clone.E12) (Fc fusion, not shown: murine IgG2a Fc domain) QVQLQESGGGLVQAGGSLRLSCVVSRNIFSLNPMGWYRQAPGKQREMVAIITDGGSTNYADSVKGRFTISRDNVKNTVYLQMNALEPEDTAVYYCNRVGGLQTWAWGQGTQVTVSS",4.54,0.00306,673000
"Anti-FcRH5 VHH-Fc AU60382 (AbVec.aFcRH5.dAb-MIgG2a-Fc.Clone.B07) (Fc fusion, not shown: murine IgG2a Fc domain) QVQLQESGGGLVQAGGSLIVSCAASGRTFSINAMAWFRQAPGKEREFVAAIGGSGRVSSTSYADFVKGRFTISRDNAKNTVYLRMNNLEPEDTAVYYCAARRDYLPFPPESYDYWGQGTQVTVA",4.34,0.000515,119000
"Anti-FcRH5 VHH-Fc AU60385 (AbVec.aFcRH5.dAb-MIgG2a-Fc.Clone.B07 as printed in Table 3; Clone B11 in Table 9) (Fc fusion, not shown: murine IgG2a Fc domain) QVQLQESGGGLVQAGGSLRLSCAASGRTFSTYAMAWFRQAPGKEREFVAAISGFGVVTYYADSVKGRFTISRDNAKNTLYLQMNGLKPEDTAVYYCAAGRRTSTNGGDYDYWGQGTQVTVS",6.56,0.000348,53100
"Anti-FcRH5 VHH-Fc AU60471 (AbVec.aFcRH5.dAb-MIgG2a-Fc.Clone.F12) (Fc fusion, VHH fused to murine IgG2a Fc; not shown: murine IgG2a Fc domain) QVQLQESGGGLVQAGGSLRLSCAASGSIFSINAMGWYRQAPGKQRELVAFITSGGSTNYADSVKGRFTISRDNAKNTVYLQMNSLKPEDTAVYYCNALGGFVPSYGWGQGTQVTVS",0.757,0.00025,330000
"Anti-FcRH5 VHH-Fc AU60369 (AbVec.aFcRH5.dAb-MIgG2a-Fc.Clone.B03) (Fc fusion, VHH fused to murine IgG2a Fc, expi-CHO, Protein A purified; not shown: murine IgG2a Fc domain) QVQLQESGGGLVQAGGSLRLSCAASRSSFSNNAMGWYRQVPGKQRELVAFITKGGVTDYSDSVKGRFTISKDNAKNTVYLQMNSLKPEDTAVYYCNTIPFRSAWGQGTQVTVS",4.77,0.00246,516000
"Anti-FcRH5 VHH-Fc AU60463 (AbVec.aFcRH5.dAb-MIgG2a-Fc.Clone.E07) (Fc fusion, not shown: murine IgG2a Fc domain) QVQLQESGGGLVQAGDSLRLSCAYSGRTFSSYAMGWFRQAPGKERVFVAAISRIGGVTTYAESVQGRFTISRDNAKNTLYLQMNALKPEDTAVYYCAAAGLVSISTTPNDYDYWGQGTQVTVS",2.99,0.000161,53800
"Anti-FcRH5 VHH-Fc AU60387 (AbVec.aFcRH5.dAb-MIgG2a-Fc.Clone.C01) (Fc fusion, VHH fused to murine IgG2a Fc; not shown: murine IgG2a Fc domain) QVQLQESGGGLVQAGGSLRLSCAASGRTFSTYGMGWFRQAPGKEREFVAAISRSGGATAYAASVKGRFTISRDDVKNTLYLQMNSLKPEDTAVYHCAGTRRAFSTGLRDYDYWGQGIQVTVS",,,48600
"Anti-FcRH5 VHH-Fc AU60460 (AbVec.aFcRH5.dAb-MIgG2a-Fc.Clone.C10) (Fc fusion, VHH fused to murine IgG2a Fc; not shown: murine IgG2a Fc domain) QVQLQESGGGLVQAGGSLRLSCAASGRTYNNYAMGWFRQAPGKEREFVAGISRSGGMTGYAESVKGRFTISRDNAKNMVFLQMNSLKPEDTAVYYCAAYVGGFSTARRDYSYWGQGTQVTVS",0.669,3.4e-05,50800
"Anti-FcRH5 VHH-Fc AU60462 (AbVec.aFcRH5.dAb-MIgG2a-Fc.Clone.E04) (Fc fusion, VHH fused to murine IgG2a Fc; not shown: murine IgG2a Fc domain) QVQLQESGGGLVQAGGSLRLSCTASGRTSSRAAMGWFRQAPGKEREFVAVISWSGGTTAYANSVKGRFTISRDNAKNTLYLQMNSLKPEDTAVYYCAAARIFTTARNDYDHWGQGTQVTVS",5.8,0.000293,50500
"Anti-FcRH5 VHH-Fc AU60470 (AbVec.aFcRH5.dAb-MIgG2a-Fc.Clone.F11) (Fc fusion, not shown: murine IgG2a Fc domain) QVQLQESGGGLVQAEGSLRLSCAASGRTFSMYAMGWFRQAPGREREFVAAISGSARITYYGQSVKGRFTISRDNAKNTVYLQMNSLKPEDTAVYYCAASSTYTSTSGSSYNYWGQGTQVTVS",0.255,1.81e-05,70800

# Molecular target: T2, Recombinant purified FcRH5 Ig-8 domain
# Test: SPR, Biacore 8k, VHH-mIgG2a Fc captured, FcRH5 Ig8 as analyte, 1:1 Langmuir fit, 25 C; footnote: kd outside instrument limits
# Experimental: as §1
Binder,Kd [nM],koff [s⁻¹]
"Anti-FcRH5 VHH-Fc AU60387 (AbVec.aFcRH5.dAb-MIgG2a-Fc.Clone.C01) (Fc fusion, VHH fused to murine IgG2a Fc; not shown: murine IgG2a Fc domain) QVQLQESGGGLVQAGGSLRLSCAASGRTFSTYGMGWFRQAPGKEREFVAAISRSGGATAYAASVKGRFTISRDDVKNTLYLQMNSLKPEDTAVYHCAGTRRAFSTGLRDYDYWGQGIQVTVS",< 0.206,< 1e-05
